Key:
[1] = confocal microscopy, apical marker gp135, MDCKII; details: glycan lost; control: wild type
[2] = immunoblot of PNGase F-treated MDCKII lysates, densitometry; details: glycan lost; control: wild type
[3] = cycloheximide chase, immunoblot, MDCKII; details: glycan lost; control: wild type
[4] = immunoblot after 24 h 2 μM MG132; details: glycan lost; control: wild type
[5] = immunoblot, high vs low glucose medium, MDCKII; details: glycan lost; control: wild type
[6] = confocal microscopy after 12 h cycloheximide; details: glycan lost; control: wild type
[7] = immunoblot of ABCC11 WT, with/without PNGase F, MDCKII; details: glycan lost; control: high glucose medium
[8] = immunoblot, ABCC11-EGFP in MDCKII, PNGase F-treated lysates; details: glycan lost; control: untreated cells
[9] = immunoblot, non-tagged ABCC11, adenovirus-infected MDCKII; details: glycan lost; control: untreated cells

ABCC11 (MRP8): Q838
localisation_or_trafficking [1]: no change
expression_or_secretion, percent_of_wt [2]: no change

ABCC11 (MRP8): Q838/844
degradation_or_half_life, half_life [3]: decreases, about 6.2 vs about 12
expression_or_secretion, percent_of_wt [2]: decreases
other: MG132-sensitive degradation, fold_change [4]: increases, about 2-fold vs no significant difference
other: glucose sensitivity of protein level [5]: abolishes
degradation_or_half_life [6]: decreases

ABCC11 (MRP8): Q844
localisation_or_trafficking [1]: no change
expression_or_secretion, percent_of_wt [2]: no change

ABCC11 (MRP8): low glucose medium
expression_or_secretion [7]: decreases

ABCC11 (MRP8): tunicamycin (0.8, 4.0 μg/mL)
expression_or_secretion [8]: decreases

ABCC11 (MRP8): tunicamycin (4.0 μg/mL)
expression_or_secretion, other: percent of untreated control [9]: decreases
